Common to all, as to assay: SPR, Fab over captured MICA*008.mIgG2a Ala variant; KD relative to wild type
Background: SPR reads the build-up and loss of mass on a sensor chip optically.

One assay deals with T1, S287A.
T1 construct: % monomer 90.34; also called MICA*008.mIgG2a S287A
T1 chain: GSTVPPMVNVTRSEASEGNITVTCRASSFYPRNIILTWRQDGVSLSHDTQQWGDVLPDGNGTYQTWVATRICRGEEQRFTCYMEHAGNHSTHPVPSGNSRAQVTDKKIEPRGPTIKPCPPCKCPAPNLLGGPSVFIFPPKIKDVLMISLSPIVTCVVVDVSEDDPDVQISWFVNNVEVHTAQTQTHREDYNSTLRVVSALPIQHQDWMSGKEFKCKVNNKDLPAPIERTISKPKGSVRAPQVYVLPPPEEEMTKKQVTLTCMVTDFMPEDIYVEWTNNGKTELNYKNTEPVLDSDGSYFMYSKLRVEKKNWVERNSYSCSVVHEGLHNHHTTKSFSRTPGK

For another assay, the target named is T2, T238A.
T2 construct: % monomer 96; also called MICA*008.mIgG2a T238A
T2 chain: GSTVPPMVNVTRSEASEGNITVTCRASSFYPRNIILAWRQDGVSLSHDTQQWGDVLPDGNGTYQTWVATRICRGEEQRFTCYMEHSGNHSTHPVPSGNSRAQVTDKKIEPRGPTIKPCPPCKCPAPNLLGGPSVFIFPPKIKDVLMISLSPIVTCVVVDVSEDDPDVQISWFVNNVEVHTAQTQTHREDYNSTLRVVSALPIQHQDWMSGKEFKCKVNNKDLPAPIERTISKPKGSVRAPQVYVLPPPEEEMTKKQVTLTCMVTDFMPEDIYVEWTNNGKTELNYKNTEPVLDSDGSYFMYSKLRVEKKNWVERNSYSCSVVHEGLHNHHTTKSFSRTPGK

In a further assay the target is T3, G288A.
T3 construct: % monomer 95.3; also called MICA*008.mIgG2a G288A
T3 chain: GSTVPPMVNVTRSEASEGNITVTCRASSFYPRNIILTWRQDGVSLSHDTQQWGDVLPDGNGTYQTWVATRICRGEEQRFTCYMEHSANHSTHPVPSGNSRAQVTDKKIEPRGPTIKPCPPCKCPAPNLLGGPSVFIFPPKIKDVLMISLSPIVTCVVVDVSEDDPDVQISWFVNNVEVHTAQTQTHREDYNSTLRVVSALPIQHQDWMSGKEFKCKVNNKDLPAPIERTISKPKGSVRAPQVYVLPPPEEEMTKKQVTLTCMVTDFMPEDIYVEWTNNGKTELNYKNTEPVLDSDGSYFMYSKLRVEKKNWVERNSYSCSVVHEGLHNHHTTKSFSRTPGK

The target in a further assay is T4, N289A.
T4 construct: % monomer 89.74; also called MICA*008.mIgG2a N289A
T4 chain: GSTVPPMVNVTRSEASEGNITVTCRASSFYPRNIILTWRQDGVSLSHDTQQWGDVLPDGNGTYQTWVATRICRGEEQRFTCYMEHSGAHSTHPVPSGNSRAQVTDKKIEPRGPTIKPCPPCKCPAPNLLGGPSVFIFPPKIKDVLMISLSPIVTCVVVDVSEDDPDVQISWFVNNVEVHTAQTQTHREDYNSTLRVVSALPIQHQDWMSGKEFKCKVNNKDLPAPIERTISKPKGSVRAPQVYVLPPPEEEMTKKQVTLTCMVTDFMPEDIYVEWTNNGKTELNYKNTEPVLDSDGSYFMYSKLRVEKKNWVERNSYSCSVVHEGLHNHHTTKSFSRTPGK

For the next assay, the target named is T5, S291A.
T5 construct: % monomer 83.21; also called MICA*008.mIgG2a S291A
T5 chain: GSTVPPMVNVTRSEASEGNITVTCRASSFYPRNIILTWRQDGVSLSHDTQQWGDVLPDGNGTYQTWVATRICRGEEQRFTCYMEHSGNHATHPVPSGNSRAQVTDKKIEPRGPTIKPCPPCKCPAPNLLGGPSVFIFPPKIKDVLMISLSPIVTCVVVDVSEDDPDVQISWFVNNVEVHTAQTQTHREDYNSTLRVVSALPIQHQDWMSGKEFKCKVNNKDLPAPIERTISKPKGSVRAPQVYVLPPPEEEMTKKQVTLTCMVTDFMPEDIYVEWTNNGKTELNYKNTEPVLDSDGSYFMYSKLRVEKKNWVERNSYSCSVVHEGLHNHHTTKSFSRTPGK

A further assay addresses T6, S297A.
T6 construct: % monomer 89.24; also called MICA*008.mIgG2a S297A
T6 chain: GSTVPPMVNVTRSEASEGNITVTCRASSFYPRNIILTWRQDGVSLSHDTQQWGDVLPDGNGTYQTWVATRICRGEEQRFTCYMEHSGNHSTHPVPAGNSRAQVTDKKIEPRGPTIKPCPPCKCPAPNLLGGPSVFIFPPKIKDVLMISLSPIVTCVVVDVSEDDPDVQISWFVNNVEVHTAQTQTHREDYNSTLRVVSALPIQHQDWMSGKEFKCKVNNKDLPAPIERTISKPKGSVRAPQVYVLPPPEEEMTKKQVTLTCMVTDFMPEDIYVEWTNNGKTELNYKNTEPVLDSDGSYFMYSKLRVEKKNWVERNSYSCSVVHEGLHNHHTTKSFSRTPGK

A further assay deals with T7, S245A.
T7 construct: % monomer 93.96; also called MICA*008.mIgG2a S245A
T7 chain: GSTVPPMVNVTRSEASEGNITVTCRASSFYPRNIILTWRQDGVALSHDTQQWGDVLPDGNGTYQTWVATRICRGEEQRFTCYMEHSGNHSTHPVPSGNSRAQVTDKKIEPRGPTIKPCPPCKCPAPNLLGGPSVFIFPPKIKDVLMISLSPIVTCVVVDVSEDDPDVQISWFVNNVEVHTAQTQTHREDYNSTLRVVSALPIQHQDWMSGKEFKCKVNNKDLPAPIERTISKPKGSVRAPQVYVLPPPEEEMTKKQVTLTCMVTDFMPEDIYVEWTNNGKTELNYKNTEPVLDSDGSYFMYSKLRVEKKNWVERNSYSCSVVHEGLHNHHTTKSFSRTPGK

B1: 1D5 Fab (Fab, V domains shown)
VH: EIQLQQSGPELVKPGASVKVSCKASGYAFTSQNIYWVKQSHGKSLEWIGYIEPYNVVPMYNPKFKGKATLTVDKSSSSAYIHLNSLTSEDSAIYYCARSGSSNFDYWGQGTTLTVSS
VL: EIILTQSPTTMAASPGEKITITCSASSSISSHYLHWYQQKSGFSPKLLIYRTSNLASGVPARFSGSGSGTSYSLTIGTMEAEDVATYYCQQGSSLPLTFGAGTKVEIK
notes: Expressed in E. coli as chimera of murine variable and human constant domains; not shown: human IgG1 CH1 constant domain; human kappa CL constant domain
Turning to B1, the fold-decrease in affinity in the assay with S287A was 4.9; in the assay with T238A, 0.4; in the assay with G288A, 1; with N289A it was 0.2; in the assay with S291A, 1.1; with S297A, 0.05.

B2: 6F8.7 Fab (Fab, V domains shown)
VH: DVQLQGSGPGLVKPSQSLSLTCSVTGYSITNDYYWNWIRQFPGNKLEWMGFISFGGSNNYNPSLKNRISITRDTSKNQFFLKLSSVTTEDTATYYCARYDGRGAWFAYWAQGTLVTVSA
VL: DIQMTQSPASLSASVGETVTITCRASGNIHNYLAWYQQKQGKSPQLLVYDAITLADGVPSRFSGSGSGTQYSLKINSLQPEDFGNYYCQHFWSFPLTFGAGTKVEIK
On to B2, for which the fold-decrease in affinity is 1.1 in the assay with S287A; 0.1 in the assay with T238A; 1 with G288A; 1.2 in the assay with N289A; 2.7 with S291A; 1 with S297A. Besides, in the assay with S245A, the fold-decrease in affinity was found to be 1.2.

B3: 7D4.6 Fab (Fab, V domains shown)
VH: DVQLQESGPGLVKPSQSLSLTCTVTGYSITSDYAWNWIRQFPRNKLEWMGYINYSGTTNYNPSLKSRISITRDTSKNQFFLQLISVTTEDTATYYCSYYRYDGAWFPYWGQGTLVTVSA
VL: DIQMTQSPASLSASVGETVTITCRASGNIHNYLAWYQQKQGKSPQLLVYNAIMLADGVPSRFSASGSGTQYSLKINSLQPEDFGSYYCQHFWSFPLTFGAGTKVEIK
Turning to B3, the fold-decrease in affinity was found to be 1.3 with S287A; 0.1 with T238A; 0.8 with G288A; 3.5 with N289A; 2.7 with S291A; 1.1 with S297A. For the same molecule, in the assay with S245A, the fold-decrease in affinity was 1.6.

B4: 2E5.2.3 Fab (Fab, V domains shown)
VH: QGQMQQSGAELVKPGASVKLSCKTSGFTFSDNYISWLKQKPGQSLEWIAWIYAGTGGTSYNQKFTAKAQLTVDTSSSTAYMQFSSLTTEDSAIYYCARHDYYGTSGAWFAYWGQGTLVTVSA
VL: DVLMTQTPLSLPVSLGDQASLSCRSSQNIVHINGNTYLEWYLQKPGQSPKLLIYKVSNRFSGVPDRFSGSGSGTDFTLKISRVEAEDLGVYYCFQGSHVPWTFGGGTKVEIK
For B4, the fold-decrease in affinity with S287A turned out to be 1; with T238A it was 1.3; in the assay with G288A, 0.6; with N289A, 1.1; with S291A it was 1.1; in the assay with S297A, 1.2. The fold-decrease in affinity with S245A was determined as 1.

The values above are taken from patent publication US20200055939A1 (Genentech, published 2020).
